Source: US10900053, “Genome-modified recombinant adeno-associated virus vectors” (University of Florida Research Foundation, Incorporated)

What was measured:
Details in all cases: tags: Sigma; label: 32P
[1] = target: T1, Glucocorticoid receptor (GR) (UniProt P04150 P04150:1-777); test: EMSA; 20 min 25 C; GR binding to GRE only slightly more efficient than to D by densitometry; unlabeled D competes GRE probe at 2- to 50-fold excess
[2] = target: T1, Glucocorticoid receptor (GR); test: EMSA; 20 min 25 C, 6% gel 0.5xTBE; competed by 10-fold excess unlabeled GRE and 2- to 50-fold unlabeled D-sequence, not by NS (FIG. 3B)
Description: (§1) In contrast, both D-sequences in the scAAV2 genomes are present in double-stranded forms. Since GR activation had no effect on the transduction efficiency for ssAAV2 vectors, it was hypothesized that the D-sequence might contain a putative GRE site. Indeed, there exists a sequence, GGTTCCT, at the end of the D-sequence, which shares partial homology to the consensus GRE site, 5'-GGTA-CANNNTGT(T/C)CT-3' (SEQ ID NO: 1) (34). The TGTTCT half-site is an essential core element which has been reported to be sufficient to relay glucocorticoid signaling (34). To experimentally test the possibility whether purified GR protein could bind to the D-sequence, electrophoretic mobility-shift assays (EMSAs) were carried out using double-stranded D-sequence oligonucleotides (D: 5'-[…]-3') (SEQ ID NO: 6). One of the conventional double-stranded GRE sequences (GRE: 5'-[…]-3') (SEQ ID NO: 13), and a non-specific (NS) sequence (NS: 5'-[…]-3') (SEQ ID NO: 10) were used as appropriate positive and negative controls, respectively. Each of the ^32P-labeled oligonucleotide probes was individually incubated with purified GR proteins for 20 minutes at 25° C. and then subjected to EMSAs. […]

[3] = target: T1, Glucocorticoid receptor (GR); test: EMSA; 20 min 25 C; unlabeled NS does not compete GRE probe (FIG. 3B lane 6)
Description: as §1

T1 sequence (P04150 whole entry, one chain of several): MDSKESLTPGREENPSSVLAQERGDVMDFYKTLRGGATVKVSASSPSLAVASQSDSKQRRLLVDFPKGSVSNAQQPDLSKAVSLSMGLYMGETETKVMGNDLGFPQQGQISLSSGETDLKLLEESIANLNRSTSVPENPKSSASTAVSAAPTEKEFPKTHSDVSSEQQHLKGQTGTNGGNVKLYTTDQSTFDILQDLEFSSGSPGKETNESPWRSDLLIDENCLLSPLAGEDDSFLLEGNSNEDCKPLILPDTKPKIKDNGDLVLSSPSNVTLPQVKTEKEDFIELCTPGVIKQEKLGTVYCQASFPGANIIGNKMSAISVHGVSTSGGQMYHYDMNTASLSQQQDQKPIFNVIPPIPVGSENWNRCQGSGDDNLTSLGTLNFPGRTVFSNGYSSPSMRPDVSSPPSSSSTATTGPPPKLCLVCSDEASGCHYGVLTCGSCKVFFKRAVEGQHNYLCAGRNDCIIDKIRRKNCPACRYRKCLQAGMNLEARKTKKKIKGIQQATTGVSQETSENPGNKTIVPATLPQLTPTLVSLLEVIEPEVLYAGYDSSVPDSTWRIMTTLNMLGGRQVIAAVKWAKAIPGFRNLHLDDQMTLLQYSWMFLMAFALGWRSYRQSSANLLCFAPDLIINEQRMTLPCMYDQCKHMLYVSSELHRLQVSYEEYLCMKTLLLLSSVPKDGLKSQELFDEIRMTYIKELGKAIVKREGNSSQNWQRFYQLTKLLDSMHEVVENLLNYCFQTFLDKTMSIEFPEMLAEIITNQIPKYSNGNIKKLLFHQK

B1: AAV2 D-sequence (D) (dsDNA)
DNA 1: CTCCATCACTAGGGGTTCCT
DNA 2: AGGAACCCCTAGTGATGGAG
- binding result [1]: binds

B2: GRE (dsDNA)
DNA 1: CTAGGCTGTACAGGATGTTCTGCCTAG
DNA 2: CTAGGCAGAACATCCTGTACAGCCTAG
- binding result [2]: binds

B3: Non-specific (NS) (dsDNA)
DNA 1: TATTAGATCTGATGGCCGCT
DNA 2: AGCGGCCATCAGATCTAATA
- binding result [3]: no binding
